Test results published in PMC3139646, “Synthesis and Investigation of a Radioiodinated F3 Peptide Analog as a SPECT Tumor Imaging Radioligand” (PLoS ONE, 2011).

Assays:
[1] = test system: MDA-MB-435 tumor xenografts; format: in vivo, mouse
Procedure: At 4 h, kidney and bladder were not visualized likely due to voiding of urine. It is possible that the presence of urine radioactivity in kidney and bladder, at the early time intervals, could have contributed to an overestimation of tissue radioactivity uptake in these organs in the images. […] Intestinal radioactivity was clearly apparent in the 4 h images, which is most likely due to a shift in radioactivity clearance from the renal to hepatobiliary excretion pathway at later time intervals.
Mouse SPECT/CT imaging studies were performed on a GMI Tri-Modality CT/PET/SPECT small animal scanner (Gamma-Medica Ideas, Inc., Northridge, CA). SPECT images were acquired using a dual-head, high-resolution, low-energy parallel-hole collimator. CT imaging of animals was performed for anatomical co-registration and CT fusion of SPECT images were performed using AMIRA (version 3.1) software (Visage Imaging, San Diego, CA USA). Imaging was performed when tumors reached a 60–100 mm^3 average volume.

[2] = test system: MDA-MB-435 tumor-bearing athymic nude mice; conditions: mouse, in vivo, iv
Procedure: Kidney uptake of radioactivity (5.68%ID/g and 10.8% ID/g at 5 and 30 min respectively post-injection) was the highest among all sampled tissues confirming that renal elimination is the major excretory pathway for the radioligand (Table S1). In tumors, radioactivity levels peaked at 30 min post-injection (1.05% ID/g).
(A) Tissue distribution at 60 min post injection and reported as percent injected dose per gram of tissue (%ID/g). (B) and (C) represent the ratio of radioactivity in tumor to blood and tumor to muscle respectively at various time intervals. All the data are computed as mean +/− SEM.
Female CD-1 nude mice (nu/nu, 25–28 g) bearing MDA-MB-435 mammary fat pad tumor xenografts on opposite sides were utilized for the biodistribution studies. Four animals (N = 4) were used per time point. […] Selected tissues (blood, heart, liver, lung, spleen, adrenals, tumor, kidney, muscle, whole brain and thyroid) were harvested and tissue samples were assayed for activity using a Gamma Counter. Tissue uptake was computed as % injected dose/gram (%ID/g).
All the data are computed as mean +/− SEM. (DOCX) Click here for additional data file.

[3] = test system: tumor-bearing athymic nude mice; conditions: mouse, in vivo, iv
Description: The remaining radioactivity consisted primarily of two hydrophobic radiometabolites representing 47% and 18% of the total plasma radioactivity. […] In contrast, the parent radioligand accounted for 42% of the total radioactivity present in mouse urine samples at this time interval. The remaining radioactivity consisted of three major hydrophobic radiometabolites representing 28%, 6.8% and 10% of the total. […] This is possibly due to its high in vivo tumor affinity which results in its rapid sequestration and retention within the tumor cells in a nucleolin dependent manner.
Blood and urine samples were collected, centrifuged at 12,000 rpm for 15 min, and the supernatants transferred to a fresh centrifuge tube and the centrifugation repeated. The supernatants were treated with CH3CN and centrifuged again to precipitate proteins and the clear supernatants analyzed by radio-HPLC (Method I).

[4] = Storage stability of formulated radioligand (radio-HPLC); format: physicochemical; conditions: formulated in PBS:EtOH [95:5], stored at 5°C, radio-HPLC analysis
Procedure: The 3-(tri-n-butylstannyl)[…] analog 8 was obtained from the N-succinimidyl-3-(tri-n-butylstannyl)benzoate analog 7 using the approach described for the synthesis of 5 (Scheme A). […] The radioiodinated product was well resolved from the tri-n-butylstannyl starting material (Rt>25 min) under the HPLC conditions. […] The radioligand which was formulated in PBS∶EtOH [95∶5] was stable for at least 1 week when stored at 5°C (<2% radiolytic decomposition by radio-HPLC analysis).

N-(2-{3-[^125I]Iodobenzoyl}aminoethyl)maleimide-F3Cys peptide [[^125I]IBMF3]
Tumor uptake in SPECT images, early ([1]; 15 min post-injection, i.v. 570–610 µCi, MDA-MB-435 xenografts): distinct uptake of radioactivity in tumor as early as 15 min post-injection
Tumor visualization in SPECT images at 4 h ([1]; 4 h post-injection, i.v. 570–610 µCi, MDA-MB-435 xenografts): visualized in the SPECT images at 4 h although at lower levels
Tumor radioactivity in SPECT images at later time intervals ([1]; >4 h post-injection, i.v., MDA-MB-435 xenografts): substantial clearance at later time intervals
Thyroid uptake in SPECT images (in vivo deiodination) ([1]; mouse, in vivo, iv): Moderate radioactivity uptake was seen in thyroid
Extraction into brain [2]: 0.03 %ID/g
Radioactivity clearance from blood [2]: > 60%
Tumor-to-blood ratio [2]: 2.1
Tumor-to-muscle ratio [2]: 4.3
Hydrophobic radiometabolite (first named), share of total plasma radioactivity [3]: 47%
Hydrophobic radiometabolite (first named), share of total urine radioactivity [3]: 28%
Hydrophobic radiometabolite (second named), share of total plasma radioactivity [3]: 18%
Hydrophobic radiometabolite (second named), share of total urine radioactivity [3]: 6.8%
Hydrophobic radiometabolite (third named), share of total urine radioactivity [3]: 10%
Parent radioligand, share of total urine radioactivity [3]: 42%
Radiolytic decomposition on storage ([4]; 1 week): < 2%
Time stable on storage [4]: at least 1 week
